Reference: patent US20190227052A1 (published 2019)

T1: human NRP1 protein (human, UniProt O14786 22-856, limits assumed)
T1 construct: also called hNRP1 protein; neuropilin 1
T1 sequence (looked up): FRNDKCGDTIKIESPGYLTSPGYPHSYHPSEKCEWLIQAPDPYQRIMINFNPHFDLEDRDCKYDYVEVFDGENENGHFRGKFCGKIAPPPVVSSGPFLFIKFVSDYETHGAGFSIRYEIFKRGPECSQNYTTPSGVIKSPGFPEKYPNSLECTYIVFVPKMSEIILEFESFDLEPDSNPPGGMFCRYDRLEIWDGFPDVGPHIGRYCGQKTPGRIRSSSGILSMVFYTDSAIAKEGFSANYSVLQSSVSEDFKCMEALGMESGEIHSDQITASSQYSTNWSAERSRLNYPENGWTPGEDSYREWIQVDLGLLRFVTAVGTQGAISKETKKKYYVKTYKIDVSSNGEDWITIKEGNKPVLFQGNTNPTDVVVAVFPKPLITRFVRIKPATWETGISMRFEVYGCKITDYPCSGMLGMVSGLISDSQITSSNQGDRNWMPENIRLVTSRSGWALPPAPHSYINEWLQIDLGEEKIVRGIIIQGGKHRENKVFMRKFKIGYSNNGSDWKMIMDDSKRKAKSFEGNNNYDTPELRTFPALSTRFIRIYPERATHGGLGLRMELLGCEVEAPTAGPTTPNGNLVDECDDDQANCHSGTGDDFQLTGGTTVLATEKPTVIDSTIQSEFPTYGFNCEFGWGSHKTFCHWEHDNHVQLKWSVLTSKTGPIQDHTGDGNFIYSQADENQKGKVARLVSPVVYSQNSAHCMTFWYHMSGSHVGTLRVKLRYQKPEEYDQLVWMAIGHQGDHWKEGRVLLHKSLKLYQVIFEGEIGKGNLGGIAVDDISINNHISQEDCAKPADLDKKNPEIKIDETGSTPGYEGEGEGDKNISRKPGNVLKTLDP


Target: T1, human NRP1 protein
Assay: SPR, Biacore T100

Kd | Binder
295 nM | 3H10 scFv (scFv, V domains shown) VH: EVQLLESGGGLVQFQQSLRLSQAASQFTFSSYYMSWVRQAFGKGLEWVSAISPGSSNKYYADSVKGRFTISRDNSKNTLYLQMNELRAEDTAVYYCARRKYMFDYWGQGTLVTVSS VL: GSVLTQPPSASGTPGQRVTISCTGESSNIGNNDVYWYQQLPGTAFKLLIYSQSNRPSGMPDRFSGSKSGTSASLAISGLRSEDEADYYCASWDSSLSGYVFGGGTKLTVTL
89.4 nM | 1A03 scFv (scFv, V domains shown) VH: EVQLLESGGGLVQFGGSLRLSQAASGFTFSSYYMSWVRQAFGKGLEWVSAISFGSSNKYYADSVQGRFTISRDNSKNTLYLQMNELRAEDTAVYYCARRKKSFDYWGQGTLVTVSS VL: QSVLTQFFSASGTPGQRVTISCSGFSSNIGNNDVSWYQQLFGTAPKLLIYSCNNRPSGVPDRFSGSKSGTSASLAISGLRSSDEADYYCGAWVASLSAYVFGGGTKLTVTL
